{"source": "paper PMC9406194", "key": {"hemoglobin": {"test_system": "hemoglobin", "experiment": "2DPC hydrogel aptasensor (Debye ring)", "conditions": "DNA-H1-960, 500 uM protein; same limit as blank; 5'-NH2-(CH2)6 and 3'-(CH2)6-NH2; amide-linked to hydrogel carboxyl groups; 10 mM phosphate-buffered saline, pH 7.40 (one test at pH 5.00), 1 h immersion; temperature of the binding assay not stated"}, "trypsin": {"test_system": "trypsin", "experiment": "2DPC hydrogel aptasensor (Debye ring)", "conditions": "DNA-H1-960, 500 uM protein; same limit as blank; 5'-NH2-(CH2)6 and 3'-(CH2)6-NH2; amide-linked to hydrogel carboxyl groups; 10 mM phosphate-buffered saline, pH 7.40 (one test at pH 5.00), 1 h immersion; temperature of the binding assay not stated"}}, "data": [{"sequence": "ATCTACGAATTCATCAGGGCTAAAGAGTGCAGAGTTACTTAG [lysozyme-binding aptamer]", "values": [{"measurement": "binding signal (nm particle spacing decrease)", "setting": "hemoglobin", "result": "< 12.7"}, {"measurement": "binding signal (nm particle spacing decrease)", "setting": "trypsin", "result": "< 12.7"}]}]}
